{"source": "patent US12686665B2", "about": "“Bicyclic fused ring derivative or salt thereof and pharmaceutical composition comprising same” (YUHAN CORPORATION, priority 2021, dated 2026)", "origin": "cited, not measured here", "tested_on": "NASH patients with advanced liver fibrosis and liver cirrhosis", "settings": "after 4 years of the treatment; cited from earlier work", "data": [{"molecule": "Simtuzumab: a monoclonal antibody against LOXL2 (antibody, chains of the INN, looked up, V domains shown) VH: QVQLVQSGAEVKKPGASVKVSCKASGYAFTYYLIEWVRQAPGQGLEWIGVINPGSGGTNYNEKFKGRATITADKSTSTAYMELSSLRSEDTAVYFCARNWMNFDYWGQGTTVTVSS VL: DIVMTQTPLSLSVTPGQPASISCRSSKSLLHSNGNTYLYWFLQKPGQSPQFLIYRMSNLASGVPDRFSGSGSGTDFTLKISRVEAEDVGVYYCMQHLEYPYTFGGGTKVEIK", "values": [{"measurement": "histological efficacy", "value": "failure to prove histological efficacy"}]}]}
